Assay results: doi:10.1101/2023.10.06.561239 (bioRxiv, 2023)

Biological target: T1, human DMC1, untagged, purified recombinant (human, UniProt Q14565 1-340)
T1 sequence (looked up): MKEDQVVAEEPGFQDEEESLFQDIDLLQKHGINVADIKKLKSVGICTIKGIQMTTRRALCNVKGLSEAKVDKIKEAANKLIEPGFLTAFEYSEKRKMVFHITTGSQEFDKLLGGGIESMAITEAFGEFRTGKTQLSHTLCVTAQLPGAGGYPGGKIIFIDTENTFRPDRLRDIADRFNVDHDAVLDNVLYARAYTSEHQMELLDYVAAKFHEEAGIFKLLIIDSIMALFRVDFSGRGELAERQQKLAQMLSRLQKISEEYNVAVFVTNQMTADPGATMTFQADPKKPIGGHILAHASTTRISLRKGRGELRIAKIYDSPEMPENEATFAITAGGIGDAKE
Test: pull-down

binding result: binds
B1: human his-GST-TEV-BRCA2 F2s3 (aa 2379-2433), wild type (domain or fragment, UniProt P51587 2379-2433, looked up)
chain: GHPFYQVSATRNEKMRHLITTGRPTKVFVPPFKTKSHFHRVEQCVRNINLEENRQ
